For orientation: EC50 means the concentration that produces a half-maximal response. Read a low EC50 as greater potency. What is called Kd is the free concentration of one partner at which half of the binding sites on the other are occupied at equilibrium, for simple one-to-one binding. High values mean lower affinity, low ones higher affinity. For orientation: IC50 means the midpoint of a concentration-inhibition curve. High values mean weaker potency in that assay, low ones greater potency in that assay.

Consider 15 molecules from US20230357429A1 (JANUX THERAPEUTICS, published 2023).

Positions count from the first letter of the chain named. Numbers in names are those of the source. Where no end group is shown, it is not given here.

Test [1] deals with T1, Human TROP2 ECD (31-274 AA), biotinylated (human, UniProt P09758 31-274, biotinylated (site not stated)).
T1 construct: also called tumor-associated calcium signal transducer 2; Human TROP2-biotin
T1 sequence: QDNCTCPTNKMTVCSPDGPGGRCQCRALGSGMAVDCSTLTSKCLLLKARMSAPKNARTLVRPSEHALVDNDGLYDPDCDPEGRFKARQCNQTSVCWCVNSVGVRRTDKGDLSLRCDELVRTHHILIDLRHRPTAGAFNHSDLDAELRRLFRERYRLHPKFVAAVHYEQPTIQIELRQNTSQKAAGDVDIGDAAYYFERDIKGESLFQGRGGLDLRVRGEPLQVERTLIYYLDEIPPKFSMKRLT
In words: ELISA on immobilized TROP2. On the technique in general: ELISA stands for enzyme-linked immunosorbent assay.

Test [2] has as its target T1, Human TROP2 ECD (31-274 AA), …. Briefly: ELISA on immobilized TROP2. The source holds these as a separate data set.
The target is the same in test [3]. Briefly: ELISA: biotinylated TROP2 captured on neutravidin plate, Fab titrated, HRP secondary antibody.
The target is the same in test [4]. In words: ELISA, ratio of EC50 to that of TBD-1 wt.
For test [5] the target is unchanged. In words: BLI (Octet), dissociation half-life from biotinylated human TROP2 ECD.
Test [6] shares this target. Briefly: BLI (Octet), biotinylated human TROP2 ECD on SAX sensor, Fab 6.25-50 nM.
Test [7] has the same target. In words: ELISA, biotinylated TROP2 ECD on neutravidin plate, Fab titrated.
For test [8] the target is unchanged. Briefly: ELISA: biotinylated TROP2 captured on neutravidin plate, Fab titrated, HRP secondary antibody. The source holds these as a separate data set.
Test [9] shares this target. In words: ELISA, biotinylated TROP2 ECD on neutravidin plate, Fab titrated. The source holds these as a separate data set.
The target of test [10] is T2, TCE-14 (anti-CD3 scFv F104A; anti-TROP2 wt).
T2 construct: scFv on the Fab heavy chain; also called TCE-14 (F104A)
Briefly: competition ELISA, TCE on captured CD3.

In test [11] the target is T3, TCE-20 (anti-CD3 scFv S110A; anti-TROP2 wt).
T3 construct: scFv on the Fab heavy chain; also called TCE-20 (S110A)
In words: competition ELISA, TCE on captured CD3.

The target of test [12] is T4, TCE-10 (anti-CD3 scFv R100A; anti-TROP2 wt).
T4 construct: scFv on the Fab heavy chain; also called TCE-10 (R100A)
Briefly: competition ELISA, TCE on captured CD3.

Test [13] concerns the target T5, TCE-11 (anti-CD3 scFv H101A; anti-TROP2 wt).
T5 construct: scFv on the Fab heavy chain; also called TCE-11 (H101A)
In words: competition ELISA, TCE on captured CD3.

For test [14], the target named is T6, TCE-13 (anti-CD3 scFv N103A; anti-TROP2 wt).
T6 construct: scFv on the Fab heavy chain; also called TCE-13 (N103A)
Briefly: competition ELISA, TCE on captured CD3.

Test [15] concerns the target T7, TCE-1 (anti-CD3 scFv wt; anti-TROP2 Fab wt).
T7 construct: anti-CD3 scFv fused to the N-terminus of the anti-TROP2 Fab heavy chain; also called TCE-1 (wt)
Briefly: competition ELISA: peptide titrated and pre-incubated with a constant concentration of TCE-1, binding of TCE-1 to plate-bound biotinylated CD3 detected.

For test [16], the target named is T8, TCE-31 (anti-CD3 scFv W238A; anti-TROP2 wt).
T8 construct: scFv on the Fab heavy chain; also called TCE-31 (W238A)
Briefly: competition ELISA, TCE on captured CD3.

In test [17] the target is T9, TCE-33 (anti-CD3 scFv F240A; anti-TROP2 wt).
T9 construct: scFv on the Fab heavy chain; also called TCE-33 (F240A)
Briefly: competition ELISA, TCE on captured CD3.

In test [18] the target is T1, Human TROP2 ECD (31-274 AA), …. Briefly: ELISA on immobilized TROP2. This is another data set of the same source.

B1: TCE-3 (bispecific antibody)
light: not shown
heavy: QVQLQQSGSELKKPGASVKVSCKASGYTFTNYGMNWVKQAPGQGLKWMGWINTYTGEPTYTDDFKGRFAFSLDTSVSTAYLQISSLKADDTAVYFCAAGGFGSSYWYFDVWGQGSLVTVSSASTKGPSVFPLAPSSKSTSGGTAALGCLVKDYFPEPVTVSWNSGALTSGVHTFPAVLQSSGLYSLSSVVTVPSSSLGTQTYICNVNHKPSNTKVDKKVEPKSC
In turn, B1 had an EC50 in test [1] of 3.18 nM.

B2: PC-9 (bispecific antibody)
light: not shown
heavy: GGVDFCGLYHWPICYQGGGGSGGLSGRSDAGSPLGLAGSGGSQVQLQQSGSELKKPGASVKVSCKASGYTFTNYGMNWVKQAPGQGLKWMGWINTYTGEPTYTDDFKGRFAFSLDTSVSTAYLQISSLKADDTAVYFCARGGFGSSYWYFAVWGQGSLVTVSSASTKGPSVFPLAPSSKSTSGGTAALGCLVKDYFPEPVTVSWNSGALTSGVHTFPAVLQSSGLYSLSSVVTVPSSSLGTQTYICNVNHKPSNTKVDKKVEPKSC
notes: anti-TROP2 D109A
In test [2], B2 returned an EC50 of 194 nM. This lies in the sub-micromolar range.

B3: PC-15 (bispecific antibody)
light: not shown
heavy: B2 heavy with F150A, A151D
notes: anti-TROP2 F108A
On to B3, for which the EC50 in test [1] worked out at 363 nM.

B4: TBD-2 (anti-TROP2 Fab, LC Q89A) (Fab, V domains shown)
VH: QVQLQQSGSELKKPGASVKVSCKASGYTFTNYGMNWVKQAPGQGLKWMGWINTYTGEPTYTDDFKGRFAFSLDTSVSTAYLQISSLKADDTAVYFCARGGFGSSYWYFDVWGQGSLVTVSS
VL: DIQLTQSPSSLSASVGDRVSITCKASQDVSIAVAWYQQKPGKAPKLLIYSASYRYTGVPDRFSGSGSGTDFTLTISSLQPEDFAVYYCAQHYITPLTFGAGTKVEIKR
Turning to B4, the figures for the EC50 in [3] and in [7] were 4.71 nM and 4.7 nM, respectively. Also, the “Fold shift in EC50 relative to wt” value in test [4] is 23.5 fold. Also, the “t1/2” value in test [5] turned out to be 24 min. This molecule also came in with a Kd in test [6] of 10.4 nM.

B5: TBD-19 (anti-TROP2 Fab, HC W106A) (Fab, V domains shown)
VH: B4 VH with W106A
VL: B4 VL with A89Q
B5: the EC50 in test [8] and in [9] was 702 nM throughout.

B6: TBD-3 (anti-TROP2 Fab, LC Q90A) (Fab, V domains shown)
VH: B4 VH
VL: B4 VL with A89Q, Q90A
For B6, the EC50 came to 0.27 nM in test [3] and 0.3 nM in test [7]. The “Fold shift in EC50 relative to wt” value in [4] was 1.5 fold. For the same molecule, the “t1/2” value in test [5] came to 27 min. In test [6], this molecule showed a Kd of 0.7 nM.

B7: TBD-7 (anti-TROP2 Fab, LC T94A) (Fab, V domains shown)
VH: B4 VH
VL: B4 VL with A89Q, T94A
On to B7, for which the EC50 came to 0.22 nM in [3] and 0.2 nM in test [7]. In addition, the “Fold shift in EC50 relative to wt” value in [4] turned out to be 1 fold. For the same molecule, the “t1/2” value in [5] is 39 min. For the same molecule, binding in [6] was put at a Kd of 0.6 nM.

B8: TBD-8 (anti-TROP2 Fab, LC P95A) (Fab, V domains shown)
VH: B4 VH
VL: B4 VL with A89Q, P95A
In the case of B8, the EC50 in test [3] and in test [7] was 0.2 nM in each case. In test [4], the “Fold shift in EC50 relative to wt” value came out at 1 fold. Further, in test [5], the “t1/2” value came to 61 min. Further, the Kd in test [6] is 0.3 nM.

B9: TBD-9 (anti-TROP2 Fab, LC L96A) (Fab, V domains shown)
VH: B4 VH
VL: B4 VL with A89Q, L96A
As for B9, the EC50 in [3] and in [7] was 16.8 nM throughout. Besides, the “Fold shift in EC50 relative to wt” value in [4] was 84 fold. In test [5], the “t1/2” value was determined as 5 min. The molecule further came in with a Kd in test [6] of 8.4 nM.

B10: TBD-10 (anti-TROP2 Fab, LC T97A) (Fab, V domains shown)
VH: B4 VH
VL: B4 VL with A89Q, T97A
In the case of B10, the figures for the EC50 in test [3] and in test [7] were 0.29 nM and 0.3 nM, respectively. The “Fold shift in EC50 relative to wt” value in [4] came to 1.5 fold. For the same molecule, in test [5], the “t1/2” value is 37 min. Besides, the affinity in test [6], expressed as Kd, was 0.6 nM.

B11: TBD-6 (anti-TROP2 Fab, LC I93A) (Fab, V domains shown)
VH: B4 VH
VL: B4 VL with A89Q, I93A
notes: also called TBD-6 (LC I93A mutant)
As for B11, the EC50 was found to be 0.29 nM in [3] and 0.3 nM in test [7]. Besides, the “Fold shift in EC50 relative to wt” value in [4] was found to be 1.5 fold. In addition, in [5], the “t1/2” value amounted to 28 min. For the same molecule, the Kd in [6] amounted to 0.7 nM.

As for GSQCLGPEWEVCPY (cysteine pairing not given here; also: biotinylated, site not given here, mask peptide for the CD3 scFv) [Peptide-66], the IC50 in test [10] was determined as 7090 nM; in test [11], 721000 nM; in test [12], 13000 nM; in test [13], 2620 nM; in test [14], 21400 nM; in [16] it was 51500 nM. The molecule also yielded an IC50 in test [17] of 3710 nM. Also, in test [15], the binding result is listed as “binds”.

GSACLGPEWEVCPY (cysteine pairing not given here; also: biotinylated, site not given here, mask peptide for the CD3 scFv) [Peptide-75]: the IC50 in [10] was found to be 4210 nM; in test [11], 120000 nM; in [12], 4740 nM; in [13], 2080 nM; in test [14], 47700 nM; in test [17] it was 7460 nM. Moreover, the binding result in test [15] is “binds”.

B12: TCE-6 (bispecific antibody)
light: DIQLTQSPSSLSASVGDRVSITCKASQDVSIAVAWYQQKPGKAPKLLIYSASYRYTGVPDRFSGSGSGTDFTLTISSLQPEDFAVYYCQQHYITPLTFGAGTKVEIKRTVAAPSVFIFPPSDEQLKSGTASVVCLLNNFYPREAKVQWKVDNALQSGNSQESVTEQDSKDSTYSLSSTLTLSKADYEKHKVYACEVTHQGLSSPVTKSFNRGEC
heavy: not shown
Consider B12, for which the EC50 in test [18] came out at 0.37 nM; in test [1] it was 0.46 nM.

B13: PC-10 (bispecific antibody)
light: GGVDFCGLYHWPICYQGGGGSSGGSAAGLLAPPGGLSGRSDAGGGGSDIQLTQSPSSLSASVGDRVSITCKASQDVSIAVAWYQQKPGKAPKLLIYSASYRYTGVPDRFSGSGSGTDFTLTISSLQPEDFAVYYCQQHYITPLTFGAGTKVEIKRTVAAPSVFIFPPSDEQLKSGTASVVCLLNNFYPREAKVQWKVDNALQSGNSQESVTEQDSKDSTYSLSSTLTLSKADYEKHKVYACEVTHQGLSSPVTKSFNRGEC
heavy: not shown
notes: anti-TROP2 D109A
As for B13, it took 181 nM to reach a half-maximal effect in test [2] (EC50).
